Measurements as given in article PMC3990580.

Key:
[1] = target: Q223R extracellular murine leptin receptor Fc (LepRec-Fc) chimera (murine) (UniProt P48356); assay: SPR; BiaCore T200, CM5 chip; anti-mouse IgG1 amine-coupled (~2000 RU) captures LepRec-Fc from the concentrated supernatant (100-300 RU); leptin 1.25-60 nM as analyte; 25°C, HBS-EP buffer, 30 µl/min; 600 s association, 1000 s dissociation; global 1:1 Langmuir fit; mean of two experiments
[2] = target: WT extracellular murine leptin receptor Fc (LepRec-Fc) chimera (murine) (UniProt P48356); assay: as above

Kd [1]: 0.0843 nM
koff [1]: 0.000147 s⁻¹
kon [1]: 1.75e+06 M⁻¹ s⁻¹
Kd [2]: 0.0647 nM
koff [2]: 0.000121 s⁻¹
kon [2]: 1.76e+06 M⁻¹ s⁻¹
Substance: Recombinant murine leptin (from UniProt P41160 22-167) (ligand)
